Experiments:
GTPγS·GST-Rac1 = GTPγS·GST-Rac1 (Homo sapiens (Human), UniProt P63000); experiment: GST-small G-protein glutathione-Sepharose affinity column
GTPγS·GST-H-Ras = GTPγS·GST-H-Ras (Homo sapiens (Human), UniProt P01112); experiment: as above
GST = GST (Schistosoma japonicum (Blood fluke), UniProt P08515 = GST); experiment: GST-small G-protein glutathione-Sepharose affinity column, SDS-PAGE and silver staining

B1: bovine Rho-kinase (enzyme)
chain: MSRPPPTGKMPGAPEAVSGDGAGASRQRKLEALIRDPRSPINVESLLDGLNPLVLDLDFPALRKNKNIDNFLNRYEKIVKKIRGLQMKAEDYDVVKVIGRGAFGEVQLVRHKASQKVYAMKLLSKFEMIKRSDSAFFWEERDIMAFANSPWVVQLFCAFQDDKYLYMVMEYMPGGDLVNLMSNYDVPEKWAKFYTAEVVLALDAIHSMGLIHRDVKPDNMLLDKHGHLKLADFGTCMKMDETGMVHCDTAVGTPDYISPEVLKSQGGDGYYGRECDWWSVGVFLFEMLVGDTPFYADSLVGTYSKIMDHKNSLCFPEDAEISKHAKNLICAFLTDREVRLGRNGVEEIKQHPFFKNDQWNWDNIRETAAPVVPELSSDIDSSNFDDIEDDKGDVETFPIPKAFVGNQLPFIGFTYYRENLLLSDSPSCKENDSIQSRKNEESQEIQKKLYTLEEHLSTEIQAKEELEQKCKSVNTRLEKVAKELEEEITLRKNVESTLRQLEREKALLQHKNAEYQRKADHEADKKRNLENDVNSLKDQLEDLKKRNQNSQISTEKVNQLQRQLDETNALLRTESDTAARLRKTQAESSKQIQQLESNNRDLQDKNCLLETAKLKLEKEFINLQSVLESERRDRTHGSEIINDLQGRISGLEEDVKNGKILLAKVELEKRQLQERFTDLEKEKNNMEIDMTYQLKVIQQSLEQEETEHKATKARLADKNKIYESIEEAKSEAMKEMEKKLSEERTLKQKVENLLLEAEKRCSILDCDLKQSQQKINELLKQKDVLNEDVRNLTLKIEQETQKRCLTQNDLKMQTQQVNTLKMSEKQLKQENNHLLEMKMSLEKQNAELRKERQDADGQMKELQDQLEAEQYFSTLYKTQVRELKEECEEKTKLCKELQQKKQELQDERDSLAAQLEITLTKADSEQLARSIAEEQYSDLEKEKIMKELEIKEMMARHKQELTEKDATIASLEETNRTLTSDVANLANEKEELNNKLKEAQEQLSRLKDEEISAAAIKAQFEKQLLTERTLKTQAVNKLAEIMNRKEPVKRGNDTDVRRKEKENRKLHMELKSEREKLTQQMIKYQKELNEMQAQIAEESQIRIELQMTLDSKDSDIEQLRSQLQALHIGLDSSSIGSGPGDTEADDGFPESRLEGWLSLPVRNNTKKFGWVKKYVIVSSKKILFYDSEQDKEQSNPYMVLDIDKLFHVRPVTQTDVYRADAKEIPRIFQILYANEGESKKEQEFPVEPVGEKSNYICHKGHEFIPTLYHFPTNCEACMKPLWHMFKPPPALECRRCHIKCHKDHMDKKEEIIAPCKVYYDISSAKNLLLLANSTEEQQKWVSRLVKKIPKKPPAPDPFARSSPRTSMKIQQNQSIRRPSRQLAPNKPS
B1: no binding (GTPγS·GST-Rac1); no binding (GTPγS·GST-H-Ras); no binding (tested: 24 nmol on the column) (GST).

— patent publication US5906819, “Rho target protein Rho-kinase” (Kirin Beer Kabushiki Kaisha, dated 1999)
